Test results as given in US20140087995A1 (published 2014).
Numbered stars: 1 amine (or outer) side, 2 acyl side, 3 side chain; on linkers, the order of the positions; unused ones are H or OH. Bridge positions count the residues as written; N and C are the ends. Side chains are listed from the residue outwards. Ends that are not written are not given here. * marks the point of attachment. C20 diacid = O=C(O)CCCCCCCCCCCCCCCCCCC(=O)*; γGlu = O=C(O)[C@H](CCC(=O)[*:2])N[*:1]

Tests used:
[1] = biological target: T1, human amylin receptor (amylin 3(a) receptor: human calcitonin receptor coexpressed with RAMP-3) (human, UniProt P30988 25-474; O60896 24-148); experiment: cell-based or functional assay
T1 sequence (looked up) 1: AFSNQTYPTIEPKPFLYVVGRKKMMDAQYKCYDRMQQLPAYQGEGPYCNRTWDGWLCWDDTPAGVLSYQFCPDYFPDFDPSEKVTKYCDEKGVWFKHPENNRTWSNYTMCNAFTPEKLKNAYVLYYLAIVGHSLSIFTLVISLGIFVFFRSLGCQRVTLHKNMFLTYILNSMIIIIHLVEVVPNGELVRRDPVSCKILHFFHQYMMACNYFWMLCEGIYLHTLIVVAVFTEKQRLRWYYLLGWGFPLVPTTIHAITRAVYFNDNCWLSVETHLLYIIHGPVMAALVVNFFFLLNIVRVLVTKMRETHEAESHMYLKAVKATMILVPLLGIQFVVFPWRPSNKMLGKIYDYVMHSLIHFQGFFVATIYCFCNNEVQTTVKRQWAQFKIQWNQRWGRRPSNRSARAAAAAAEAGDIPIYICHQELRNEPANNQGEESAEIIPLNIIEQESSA
T1 sequence (looked up) 2: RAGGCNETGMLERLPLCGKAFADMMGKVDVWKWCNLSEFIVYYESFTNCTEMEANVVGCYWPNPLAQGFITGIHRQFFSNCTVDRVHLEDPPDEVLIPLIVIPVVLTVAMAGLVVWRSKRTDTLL

[2] = biological target: T2, human calcitonin receptor (human, UniProt P30988 25-474); experiment: cell-based or functional assay
T2 sequence (looked up): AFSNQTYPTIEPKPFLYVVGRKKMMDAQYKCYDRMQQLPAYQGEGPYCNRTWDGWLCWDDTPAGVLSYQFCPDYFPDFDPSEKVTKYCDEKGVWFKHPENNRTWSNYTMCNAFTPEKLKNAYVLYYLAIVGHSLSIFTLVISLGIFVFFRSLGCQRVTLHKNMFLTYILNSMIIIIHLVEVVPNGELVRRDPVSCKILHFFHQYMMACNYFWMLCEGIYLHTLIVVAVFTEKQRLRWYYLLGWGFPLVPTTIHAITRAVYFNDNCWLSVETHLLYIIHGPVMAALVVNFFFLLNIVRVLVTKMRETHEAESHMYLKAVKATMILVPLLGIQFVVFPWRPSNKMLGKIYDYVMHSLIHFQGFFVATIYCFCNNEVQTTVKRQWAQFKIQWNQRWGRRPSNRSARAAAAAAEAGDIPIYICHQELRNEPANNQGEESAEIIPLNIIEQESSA

B1: N^ε1-[(4S)-4-carboxy-4-(19-carboxynonadecanoylamino)butanoyl]-[Arg17,Pro21,Pro27,His34]-h-amylin (peptide)
peptide: K([γGlu-C20 diacid])CNTATCATQRLANFLRHSSPNFGAIPSSTNVGHNTY-NH2
modifications: disulfide 2-7; N-terminus assumed
SMILES: CC[C@H](C)[C@H](NC(=O)[C@H](C)NC(=O)CNC(=O)[C@H](Cc1ccccc1)NC(=O)[C@H](CC(N)=O)NC(=O)[C@@H]1CCCN1C(=O)[C@H](CO)NC(=O)[C@H](CO)NC(=O)[C@H](Cc1c[nH]cn1)NC(=O)[C@H](CCCNC(=N)N)NC(=O)[C@H](CC(C)C)NC(=O)[C@H](Cc1ccccc1)NC(=O)[C@H](CC(N)=O)NC(=O)[C@H](C)NC(=O)[C@H](CC(C)C)NC(=O)[C@H](CCCNC(=N)N)NC(=O)[C@H](CCC(N)=O)NC(=O)[C@@H](NC(=O)[C@H](C)NC(=O)[C@@H]1CSSC[C@H](NC(=O)[C@@H](N)CCCCNC(=O)CC[C@H](NC(=O)CCCCCCCCCCCCCCCCCCC(=O)O)C(=O)O)C(=O)N[C@@H](CC(N)=O)C(=O)N[C@@H]([C@@H](C)O)C(=O)N[C@@H](C)C(=O)N[C@@H]([C@@H](C)O)C(=O)N1)[C@@H](C)O)C(=O)N1CCC[C@H]1C(=O)N[C@@H](CO)C(=O)N[C@@H](CO)C(=O)N[C@H](C(=O)N[C@@H](CC(N)=O)C(=O)N[C@H](C(=O)NCC(=O)N[C@@H](Cc1c[nH]cn1)C(=O)N[C@@H](CC(N)=O)C(=O)N[C@H](C(=O)N[C@@H](Cc1ccc(O)cc1)C(N)=O)[C@@H](C)O)C(C)C)[C@@H](C)O
notes: also called compound 77
hAmylin-R funct. EC50 (pM) [1]: 145 pM | hCTR funct. EC50 (pM) [2]: 5400 pM

B2: N^ε1-[(4S)-4-carboxy-4-[[(4S)-4-carboxy-4-(19-carboxynonadecanoylamino)butanoyl]amino]butanoyl]-[Glu14,Arg17,Pro21,Pro27,Pro34,Arg35]-h-amylin (peptide)
peptide: K([γGlu-γGlu-C20 diacid])CNTATCATQRLAEFLRHSSPNFGAIPSSTNVGPRTY-NH2
modifications: disulfide 2-7; N-terminus assumed
SMILES: CC[C@H](C)[C@H](NC(=O)[C@H](C)NC(=O)CNC(=O)[C@H](Cc1ccccc1)NC(=O)[C@H](CC(N)=O)NC(=O)[C@@H]1CCCN1C(=O)[C@H](CO)NC(=O)[C@H](CO)NC(=O)[C@H](Cc1c[nH]cn1)NC(=O)[C@H](CCCNC(=N)N)NC(=O)[C@H](CC(C)C)NC(=O)[C@H](Cc1ccccc1)NC(=O)[C@H](CCC(=O)O)NC(=O)[C@H](C)NC(=O)[C@H](CC(C)C)NC(=O)[C@H](CCCNC(=N)N)NC(=O)[C@H](CCC(N)=O)NC(=O)[C@@H](NC(=O)[C@H](C)NC(=O)[C@@H]1CSSC[C@H](NC(=O)[C@@H](N)CCCCNC(=O)CC[C@H](NC(=O)CC[C@H](NC(=O)CCCCCCCCCCCCCCCCCCC(=O)O)C(=O)O)C(=O)O)C(=O)N[C@@H](CC(N)=O)C(=O)N[C@@H]([C@@H](C)O)C(=O)N[C@@H](C)C(=O)N[C@@H]([C@@H](C)O)C(=O)N1)[C@@H](C)O)C(=O)N1CCC[C@H]1C(=O)N[C@@H](CO)C(=O)N[C@@H](CO)C(=O)N[C@H](C(=O)N[C@@H](CC(N)=O)C(=O)N[C@H](C(=O)NCC(=O)N1CCC[C@H]1C(=O)N[C@@H](CCCNC(=N)N)C(=O)N[C@H](C(=O)N[C@@H](Cc1ccc(O)cc1)C(N)=O)[C@@H](C)O)C(C)C)[C@@H](C)O
notes: also called compound 110
hAmylin-R funct. EC50 (pM) [1]: 278 pM | Ratio hCT/hAmylin funct. [2]: 29.3 | hCTR funct. EC50 (pM) [2]: 8160 pM

K([γGlu-γGlu-C20 diacid])CNTATCATQRLAEFLRHSSPNFGAIPSSTNVGPHTY-NH2 (disulfide 2-7 (inferred))
hAmylin-R funct. EC50 (pM) [1]: 172 pM | Ratio hCT/hAmylin funct. [2]: 16.4 | hCTR funct. EC50 (pM) [2]: 2830 pM

B3: N^ε1-[(4S)-4-carboxy-4-[[(4S)-4-carboxy-4-(19-carboxynonadecanoylamino)butanoyl]amino]butanoyl]-[His14,Arg17,Pro21,Pro27]-h-amylin (peptide)
peptide: K([γGlu-γGlu-C20 diacid])CNTATCATQRLAHFLRHSSPNFGAIPSSTNVGSNTY-NH2
modifications: disulfide 2-7; N-terminus assumed
SMILES: CC[C@H](C)[C@H](NC(=O)[C@H](C)NC(=O)CNC(=O)[C@H](Cc1ccccc1)NC(=O)[C@H](CC(N)=O)NC(=O)[C@@H]1CCCN1C(=O)[C@H](CO)NC(=O)[C@H](CO)NC(=O)[C@H](Cc1c[nH]cn1)NC(=O)[C@H](CCCNC(=N)N)NC(=O)[C@H](CC(C)C)NC(=O)[C@H](Cc1ccccc1)NC(=O)[C@H](Cc1c[nH]cn1)NC(=O)[C@H](C)NC(=O)[C@H](CC(C)C)NC(=O)[C@H](CCCNC(=N)N)NC(=O)[C@H](CCC(N)=O)NC(=O)[C@@H](NC(=O)[C@H](C)NC(=O)[C@@H]1CSSC[C@H](NC(=O)[C@@H](N)CCCCNC(=O)CC[C@H](NC(=O)CC[C@H](NC(=O)CCCCCCCCCCCCCCCCCCC(=O)O)C(=O)O)C(=O)O)C(=O)N[C@@H](CC(N)=O)C(=O)N[C@@H]([C@@H](C)O)C(=O)N[C@@H](C)C(=O)N[C@@H]([C@@H](C)O)C(=O)N1)[C@@H](C)O)C(=O)N1CCC[C@H]1C(=O)N[C@@H](CO)C(=O)N[C@@H](CO)C(=O)N[C@H](C(=O)N[C@@H](CC(N)=O)C(=O)N[C@H](C(=O)NCC(=O)N[C@@H](CO)C(=O)N[C@@H](CC(N)=O)C(=O)N[C@H](C(=O)N[C@@H](Cc1ccc(O)cc1)C(N)=O)[C@@H](C)O)C(C)C)[C@@H](C)O
notes: also called compound 92
hAmylin-R funct. EC50 (pM) [1]: 85 pM | Ratio hCT/hAmylin funct. [2]: 28 | hCTR funct. EC50 (pM) [2]: 2380 pM

B4: N^ε1-[(4S)-4-carboxy-4-[[(4S)-4-carboxy-4-(19-carboxynonadecanoylamino)butanoyl]amino]butanoyl]-[Arg17,Pro21,Pro27,His34]-h-amylin (peptide)
peptide: K([γGlu-γGlu-C20 diacid])CNTATCATQRLANFLRHSSPNFGAIPSSTNVGHNTY-NH2
modifications: disulfide 2-7; N-terminus assumed
SMILES: CC[C@H](C)[C@H](NC(=O)[C@H](C)NC(=O)CNC(=O)[C@H](Cc1ccccc1)NC(=O)[C@H](CC(N)=O)NC(=O)[C@@H]1CCCN1C(=O)[C@H](CO)NC(=O)[C@H](CO)NC(=O)[C@H](Cc1c[nH]cn1)NC(=O)[C@H](CCCNC(=N)N)NC(=O)[C@H](CC(C)C)NC(=O)[C@H](Cc1ccccc1)NC(=O)[C@H](CC(N)=O)NC(=O)[C@H](C)NC(=O)[C@H](CC(C)C)NC(=O)[C@H](CCCNC(=N)N)NC(=O)[C@H](CCC(N)=O)NC(=O)[C@@H](NC(=O)[C@H](C)NC(=O)[C@@H]1CSSC[C@H](NC(=O)[C@@H](N)CCCCNC(=O)CC[C@H](NC(=O)CC[C@H](NC(=O)CCCCCCCCCCCCCCCCCCC(=O)O)C(=O)O)C(=O)O)C(=O)N[C@@H](CC(N)=O)C(=O)N[C@@H]([C@@H](C)O)C(=O)N[C@@H](C)C(=O)N[C@@H]([C@@H](C)O)C(=O)N1)[C@@H](C)O)C(=O)N1CCC[C@H]1C(=O)N[C@@H](CO)C(=O)N[C@@H](CO)C(=O)N[C@H](C(=O)N[C@@H](CC(N)=O)C(=O)N[C@H](C(=O)NCC(=O)N[C@@H](Cc1c[nH]cn1)C(=O)N[C@@H](CC(N)=O)C(=O)N[C@H](C(=O)N[C@@H](Cc1ccc(O)cc1)C(N)=O)[C@@H](C)O)C(C)C)[C@@H](C)O
notes: also called compound 86
hAmylin-R funct. EC50 (pM) [1]: 298 pM | hCTR funct. EC50 (pM) [2]: 19200 pM
